Consider two molecules from patent publication US7521047 (GPC BIOTECH, dated 2009).

Numbering of substitutions follows the chain as printed.

Assay [1] deals with T1, human MHC class II DR protein (DRA*0101/DRB1*0401), purified from PRIESS cells (human, UniProt P01903 26-254; P01911 30-266, limits assumed).
T1 construct: mature; also called HLA-DR protein; MHCII
T1 MHC II alpha: not shown
T1 MHC II beta: not shown
As to the kind of experiment: SPR (BIAcore), MHCII on CM5 chip.

The target in assay [2] is T1, human MHC class II DR protein …. Kind of assay: SPR (BIAcore), Fab, 8 preparations on 4 chips.
For assay [3] the target is unchanged. Kind of assay: BiaCore, Fab.
Assay [4] addresses T2, HLA-DR (DRA*0101/DRB1*0401) on PRIESS cells (human, UniProt P01903 26-254; P01911 30-266).
T2 MHC II alpha: not shown
T2 MHC II beta: not shown
Kind of assay: cell-based or functional assay.

Assay [5] addresses T1, human MHC class II DR protein …. Kind of assay: ELISA, coated antigen, Fab 100 ng/well, read at 370 nm. The method, then:
After washing in PBS the anti-human IgG F(ab')_2-peroxidase-conjugate at a 1:10,000 dilution in TBS (supplemented with 5% w/v non-fat drymilk/0.05% v/v Tween 20) was added to each well for 1 h. Final washes were carried out in PBS followed the addition the substrate POD (Roche).

The next assay concerns the target HLA-DR on BONNA-12 cells (human). As to the kind of experiment: cell-based or functional assay.
For a further assay, the target named is HLA-DR on BJAB cells (human). As to the kind of experiment: cell-based or functional assay.
The next assay concerns the target HLA-DR on MN-60 cells (human). As to the kind of experiment: cell-based or functional assay.
The target in assay [6] is HLA-DR on MHH-CALL-4 cells (human). As to the kind of experiment: cell-based or functional assay.
Assay [7] concerns the target T2, HLA-DR (DRA*0101/DRB1*0401) on PRIESS …. As to the kind of experiment: cell-based or functional assay.
Assay [8] addresses chimeric 0401-IE class II molecule on cells of transgenic mice (human/murine chimera). Kind of assay: cell-based or functional assay.
For assay [9], the target named is T1, human MHC class II DR protein …. As to the kind of experiment: SPR (BIAcore), chip density 4000 RU MHCII.
For assay [10] the target is unchanged. As to the kind of experiment: BiaCore, Fab.

B1: MS-GPC-8 Fab (Fab, V domains shown)
VH: QVQLKESGPALVKPTQTLTLTCTFSGFSLSTSGVGVGWIRQPPGKALEWLALIDWDDDKYYSTSLKTRLTISKDTSKNQVVLTMTNMDPVDTATYYCARSPRYRGAFDYWGQGTLVTVSS
VL: DIVLTQPPSVSGAPGQRVTISCSGSSSNIGSNYVSWYQQLPGTAPKLLIYDNNQRPSGVPDRFSGSKSGTSASLAITGLQSEDEADYYCQSYDMPQAVFGGGTKLTVLG
notes: Fab from pMx9_Fab: VH-CH1 with FLAG tag and STREP tag II, VL-CL; VH residue 1 is Q in Fab; also called B8-Fab; B8
With B1, the dissociation constant (Kd) in assay [1], in assay [2] and in assay [3] was 346 nM each time. Moreover, the koff in [1], in assay [2] and in [3] was 0.029 s⁻¹ each time. The association rate constant (kon) in assay [1], in assay [2] and in assay [3] was 99000 M⁻¹ s⁻¹ in each case. Moreover, the “EC50 of cell killing, cross-linked Fab, bivalent agent” value in assay [4] came to 31 nM. In addition, the ELISA signal in assay [5] came to 1.06. Further, the “cell killing, cross-linked Fab, 4 h” value (with HLA-DR on BONNA-12 cells; in the assay with HLA-DR on BJAB cells; with HLA-DR on MN-60 cells; in assay [6]) was greater than 50% each time. The “maximum capacity to kill MHH-Call 4 cells” value in [6] came to 65%. Moreover, in assay [7], the “maximum killing capacity, cross-linked bivalent fragment” value worked out at 84%. The “IC50 of inhibition of IL-2 secretion from T-Hyb 1 cells” value in assay [8] is 110 nM (half the concentration of the Fab). Besides, the “Maximum inhibition(%) of IL-2 secretion” value in assay [8] came to 100%.

B2: MS-GPC-8-17 Fab (Fab, V domains shown)
VH: B1 VH
VL: B1 VL with M94F, P95S, Q96V, A97Y
notes: Fab: VH-CH1 with FLAG tag and STREP tag II, VL-CL; VH residue 1 is Q in Fab; also called 7BA
In assay [1], B2 yielded an equilibrium dissociation constant (Kd) of 54.7 nM, a koff of 0.00548 s⁻¹ and an association rate constant (kon) of 100000 M⁻¹ s⁻¹. For the same molecule, in assay [9], the Kd turned out to be 54.7 nM, the koff stood at 0.00548 s⁻¹ and the association rate constant (kon) was determined as 100000 M⁻¹ s⁻¹. In assay [3], this molecule showed an equilibrium dissociation constant (Kd) of 58.6 nM, a koff of 0.00548 s⁻¹ and an association rate constant (kon) of 96000 M⁻¹ s⁻¹. In addition, the “EC50 of cell killing, cross-linked Fab, bivalent agent” value in [4] came to 16 nM. Also, the “fold affinity improvement compared to MS-GPC-8/B8” value in assay [10] amounted to 5 fold. Further, the “maximum capacity to kill MHH-Call 4 cells” value in [6] came to 78%.
